Data taken from CN113621063A (JIANGSU QUANXIN BIOMEDICAL CO LTD; JIANGSU SAIFUSHI …, dated 2021).

T1: 人IFNAR1 (on HEK Blue IFNα/β cells, Daudi cells, human whole blood cells) (human, UniProt P17181 28-557)
T1 sequence (looked up): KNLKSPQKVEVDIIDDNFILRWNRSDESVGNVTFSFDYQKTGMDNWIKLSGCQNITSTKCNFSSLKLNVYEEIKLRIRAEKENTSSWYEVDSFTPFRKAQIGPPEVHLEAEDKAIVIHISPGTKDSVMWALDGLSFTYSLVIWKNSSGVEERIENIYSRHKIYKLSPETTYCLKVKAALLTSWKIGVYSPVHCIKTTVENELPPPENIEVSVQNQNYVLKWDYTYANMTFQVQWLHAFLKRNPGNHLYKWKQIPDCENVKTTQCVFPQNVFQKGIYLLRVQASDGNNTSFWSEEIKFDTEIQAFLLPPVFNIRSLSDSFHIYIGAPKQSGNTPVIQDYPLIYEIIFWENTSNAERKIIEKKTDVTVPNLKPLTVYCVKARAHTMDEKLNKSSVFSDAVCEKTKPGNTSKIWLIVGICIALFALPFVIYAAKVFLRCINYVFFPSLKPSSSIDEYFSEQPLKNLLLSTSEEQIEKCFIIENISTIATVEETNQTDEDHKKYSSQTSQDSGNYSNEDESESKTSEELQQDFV

T2: 人干扰素α受体1(IFNAR1) (human, UniProt P17181 28-436)
T2 construct: Soluble antigen flowed over the captured antibody in the Biacore assay; also called 人IFNAR1; Human Interferon alpha/beta Receptor 1
T2 sequence: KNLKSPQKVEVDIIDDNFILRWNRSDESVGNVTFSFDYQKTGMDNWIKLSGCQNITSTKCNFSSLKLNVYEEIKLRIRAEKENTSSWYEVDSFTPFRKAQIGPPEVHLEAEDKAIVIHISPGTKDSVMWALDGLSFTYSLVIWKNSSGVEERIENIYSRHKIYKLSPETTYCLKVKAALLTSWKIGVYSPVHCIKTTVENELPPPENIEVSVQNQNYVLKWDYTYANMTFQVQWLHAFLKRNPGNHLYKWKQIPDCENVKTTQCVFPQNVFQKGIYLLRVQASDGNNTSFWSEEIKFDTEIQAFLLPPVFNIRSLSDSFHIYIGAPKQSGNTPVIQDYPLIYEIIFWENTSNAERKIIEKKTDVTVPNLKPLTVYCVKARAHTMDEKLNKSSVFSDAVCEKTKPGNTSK


What was measured:
[1] = target: T1, 人IFNAR1 (on HEK Blue IFNα/β cells, …); assay: cell-based or functional assay
人干扰素α受体1(IFNAR1) = target: T2, 人干扰素α受体1(IFNAR1); assay: SPR, Biacore T200, antibody captured on Protein A chip, antigen in flow, 25℃, 1:1 model, mean of three runs

抑制干扰素诱导的Daudi细胞增殖活性的EC50 [1] | 抑制干扰素诱导的HEK Blue IFNα/β细胞中1/2磷酸化活性的IC50 [1] | 抑制干扰素诱导的全血释放CXCL10/IP10活性的IC50 [1] | Kd (人干扰素α受体1(IFNAR1)) | koff (人干扰素α受体1(IFNAR1)) | kon (人干扰素α受体1(IFNAR1)) | Binder
31.7 ng/mL | 4.43 ng/mL | 562 ng/mL |  |  |  | Anifrolumab (antibody, V domains shown) VH: EVQLVQSGAEVKKPGESLKISCKGSGYIFTNYWIAWVRQMPGKGLESMGIIYPGDSDIRYSPSFQGQVTISADKSITTAYLQWSSLKASDTAMYYCARHDIEGFDYWGRGTLVTVSS VL: EIVLTQSPGTLSLSPGERATLSCRASQSVSSSFFAWYQQKPGQAPRLLIYGASSRATGIPDRLSGSGSGTDFTLTITRLEPEDFAVYYCQQYDSSAITFGQGTRLEIKR
29.9 ng/mL | 5.23 ng/mL | 698 ng/mL | 0.108 nM | 3.76e-05 s⁻¹ | 347000 M⁻¹ s⁻¹ | QX006N(HZD1203-45-IgG4.1) (antibody, V domains shown, Humanized rabbit clone 1203#; The human IgG1 constant region was replaced by human IgG4 (plasmid pHZDCH-362VH-Hu6-IgG4.1) and the light chain plasmid is pHZDCK (kappa); also called 抗人干扰素α受体1单克隆抗体QX006N; 重组人源化抗IFNAR1单克隆抗体) VH: EVQLVESGGGLVQPGGSLRLSCAASGFSLSSYYMTWVRQAPGKGLEWVSVINVYGGTYYASWAKGRFTISRDNSKNTLYLQMNSLRAEDTAVYYCAREDVAVYMAIDLWGQGTLVTVSS VL: AIQMTQSPSSLSASVGDRVTITCQASQSISNQLSWYQQKPGKAPKLLIYDASSLASGVPSRFSGSRSGTKFTLTISSLQPEDFATYYCLGIYGDGADDGIAFGGGTKVEIK
